Source: patent US20230134571A1 (INTERNATIONAL AIDS VACCINE INITIATIVE, published 2023)
Positions count from the first letter of the chain named.

B1: ePGDM9 (antibody, V domains shown)
VH: QAQLVQSGPEVRKPGTSVKVSCKNPGNTLTTYDLHWVRQVPGQGLQWMGWISHEGDKKVIVERFKAKVTIDWDRSTNTAYLQLSGLTSEDTAVYYCAKGSKHRLRDYALYDEDGALNWAVDVDYLANLEFWGQGTAVTVSS
VL: DIVLTQSPLSLSVTPGESASISCKSSQSLIHGDRNNYLAWYVQKPGRSPQLLIDLASERASGVPDRFSGSGSRKDFTLKISRVETEDVGTYYCMQGRESPWTFGQGTKVDIK
B2: ePGDM13 (antibody, V domains shown)
VH: B1 VH
VL: B1 VL with Q27H, I30Q, I53L, R73E
B3: ePGDM5 (antibody, V domains shown)
VH: B1 VH
VL: B1 VL with I2F, S26D, Q27H, I30Q, S81D, T85A
B4: PGDM1400 (antibody, V domains shown)
VH: B1 VH with A2V, Q3H, V5T, N24A, T30K, Q39S, E89G, E112D, A126S
VL: B1 VL with I2F, L9H, Q27H, D54Y, E58S, R73D

What was measured:
Assay in all cases: cell-based or functional assay
[1] = target: HIV Env, isolate ZM197M.PB7 (HIV)
[2] = target: HIV Env, isolate CAAN5342.A2 (HIV)
[3] = target: HIV Env, isolate 89-F1_2_25 (HIV)
[4] = target: HIV Env, isolate 6811.v7.c18 (HIV)
HIV Env, isolate CNE30 = HIV Env, isolate CNE30 (HIV)
[5] = target: HIV Env, isolate 6952.v1.c20 (HIV)
[6] = target: HIV Env, isolate 1056_10_TA11_1826 (HIV)
[7] = target: HIV Env, isolate ZM109F.PB4 (HIV)
HIV Env, isolate TRO.11 = HIV Env, isolate TRO.11 (HIV)
[8] = target: HIV Env, isolate ZM53M.PB12 (HIV)
[9] = target: HIV Env, isolate HIV-001428-2.42 (HIV)
[10] = target: HIV Env, isolate 6244_13_B5_4576 (HIV)
[11] = target: HIV Env, isolate X1632_S2_B10 (HIV)
[12] = target: HIV Env, isolate REJO4541.67 (HIV)
[13] = target: HIV Env, isolate HIV-0013095-2.11 (HIV)
[14] = target: HIV Env, isolate Du156.12 (HIV)

Binder	IC80 (µg/ml) with constrains [1]	IC80 (µg/ml) with constrains [2]	IC80 (µg/ml) with constrains [3]	IC80 (µg/ml) with constrains [4]	IC80 (µg/ml) with constrains (HIV Env, isolate CNE30)	IC80 (µg/ml) with constrains [5]	IC80 (µg/ml) with constrains [6]	IC80 (µg/ml) with constrains [7]	IC80 (µg/ml) with constrains (HIV Env, isolate TRO.11)	IC80 (µg/ml) with constrains [8]	IC80 (µg/ml) with constrains [9]	IC80 (µg/ml) with constrains [10]	IC80 (µg/ml) with constrains [11]	IC80 (µg/ml) with constrains [12]	IC80 (µg/ml) with constrains [13]	IC80 (µg/ml) with constrains [14]
B1	0.092 µg/mL	70.1 µg/mL	0.004 µg/mL	> 100 µg/mL	> 100 µg/mL	0.21 µg/mL	3.61 µg/mL	0.106 µg/mL	0.652 µg/mL	0.026 µg/mL	0.008 µg/mL	50.2 µg/mL	0.01 µg/mL	0.003 µg/mL	> 100 µg/mL	0.016 µg/mL
B2	0.24 µg/mL	> 100 µg/mL	0.006 µg/mL	> 100 µg/mL	> 100 µg/mL	0.318 µg/mL	6.03 µg/mL	0.196 µg/mL	1.41 µg/mL	0.022 µg/mL	0.011 µg/mL	> 100 µg/mL	0.013 µg/mL	0.008 µg/mL	> 100 µg/mL	0.026 µg/mL
B3	0.141 µg/mL	> 100 µg/mL	0.006 µg/mL	> 100 µg/mL	> 100 µg/mL	0.132 µg/mL	3.57 µg/mL	0.121 µg/mL	1.26 µg/mL	0.022 µg/mL	0.013 µg/mL	75.6 µg/mL	0.012 µg/mL	0.005 µg/mL	> 100 µg/mL	0.026 µg/mL
B4	0.282 µg/mL	> 100 µg/mL	0.013 µg/mL	> 100 µg/mL	> 100 µg/mL	7.03 µg/mL	13.5 µg/mL	0.39 µg/mL	0.823 µg/mL	0.034 µg/mL	0.054 µg/mL	> 100 µg/mL	0.135 µg/mL	0.017 µg/mL	> 100 µg/mL	0.025 µg/mL
